Measured values published in the supplement of paper PMC10567573.

B1: TRIM35 (parent)
chain: DKELLCCSCQADPRHQGHRVQPVK

Variants of: B1
Test: protein stability index of a GFP-peptide fusion (GPS, HEK-293T) (PSI 1-6); higher = more stable
Conditions: c terminus: a fixed tail appended
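Also: lentivirally expressed fusions sorted by FACS into six bins by GFP to DsRed ratio, PSI derived from sequencing read proportions per bin multiplied by bin number.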

Variant	protein stability index
DKSLLCCSCQADPRHQGHRVQPVK	3.94
DKFLLCCSCQADPRHQGHRVQPVK	2.34
DKLLLCCSCQADPRHQGHRVQPVK	2.11
DKRLLCCSCQADPRHQGHRVQPVK	2.81
DKWLLCCSCQADPRHQGHRVQPVK	1.93
DKMLLCCSCQADPRHQGHRVQPVK	2.12
DKELLCCSCQADPRHQGHRVQAVK	3.97
DKELLCCSCQADPRHQGHRVQQVK	4.04
DKELLCCSCQADPRHQGHRVQCVK	4.52
DKELLCCSCQADPRHQGHRVQDVK	4.11
DKELLCCSCQADPRHQGHRVQMVK	2.73
DKELLCCSCQADPRHQGHRVQEVK	4.53
DKELLCCSCQADPRHQGHRVQRVK	3.4
DKELLCCSCQADPRHQGHRVQVVK	2.68
DKELLCCSCQALPRHQGHRVQPVK	2.53
DKELLCCSCQATPRHQGHRVQPVK	3.01
DKELLCCSCQAPPRHQGHRVQPVK	2.78
DKELLCCSCQAKPRHQGHRVQPVK	3.81
DKELLCCSCQAHPRHQGHRVQPVK	2.89
DKELLCCSCQNDPRHQGHRVQPVK	4.24
DKELLCCSCQGDPRHQGHRVQPVK	3.95
DKELLCCSCQHDPRHQGHRVQPVK	3.29
DKELLCCSCQYDPRHQGHRVQPVK	2.93
DKELLCCSCQDDPRHQGHRVQPVK	4.08

Variant	protein stability index
DKELLCCSCQCDPRHQGHRVQPVK	3.23
DKELLCCSCQRDPRHQGHRVQPVK	3.85
DKELLCCSCQVDPRHQGHRVQPVK	3.13
DKELLCCSCHADPRHQGHRVQPVK	3.79
DKELLCCSCVADPRHQGHRVQPVK	3.29
DKELLCCSCSADPRHQGHRVQPVK	2.89
DKELLCCSCRADPRHQGHRVQPVK	3.68
DKELLCCSCAADPRHQGHRVQPVK	3.41
DKELLCCSCDADPRHQGHRVQPVK	4.1
DKELLCCSCKADPRHQGHRVQPVK	3.8
DKELLCCSCQADPRHQGHRVLPVK	3.15
DKELLCCSCQADPRHQGHRVWPVK	2.52
DKELLCCSCQADPRHQGHRVDPVK	4.05
DKELLCCSCQADPRHQGHRVYPVK	2.91
DKELLCCSCQADPRHQGHRVEPVK	4.26
DKELLCCSCQADPRHQGHRVIPVK	2.65
DKELLCCSMQADPRHQGHRVQPVK	4.03
DKELLCCSNQADPRHQGHRVQPVK	4.6
DKELLCCSQQADPRHQGHRVQPVK	4.65
DKELLCCSLQADPRHQGHRVQPVK	3.09
DKELLCCSHQADPRHQGHRVQPVK	4.1
DKELLCCSAQADPRHQGHRVQPVK	3.85
DKELLCCSKQADPRHQGHRVQPVK	4.64
DKELLCCSYQADPRHQGHRVQPVK	4.52

Variant	protein stability index
DKELLCCSTQADPRHQGHRVQPVK	4.28
VKELLCCSCQADPRHQGHRVQPVK	3.06
QKELLCCSCQADPRHQGHRVQPVK	3.59
EKELLCCSCQADPRHQGHRVQPVK	4.13
WKELLCCSCQADPRHQGHRVQPVK	1.87
TKELLCCSCQADPRHQGHRVQPVK	3.71
MKELLCCSCQADPRHQGHRVQPVK	3.67
KKELLCCSCQADPRHQGHRVQPVK	3.46
DKELLCKSCQADPRHQGHRVQPVK	3.88
DKELLCSSCQADPRHQGHRVQPVK	4.06
DKELLCPSCQADPRHQGHRVQPVK	4.03
DKELLCTSCQADPRHQGHRVQPVK	4.18
DKELLCHSCQADPRHQGHRVQPVK	4.03
DKELLCASCQADPRHQGHRVQPVK	4.12
DKELLCFSCQADPRHQGHRVQPVK	3.38
DKELLCRSCQADPRHQGHRVQPVK	3.76
DKELLCGSCQADPRHQGHRVQPVK	4.23
DKELLCNSCQADPRHQGHRVQPVK	4.1
DKELLCDSCQADPRHQGHRVQPVK	4.67
DKELLCVSCQADPRHQGHRVQPVK	3.87
DKELLCQSCQADPRHQGHRVQPVK	4.5
DKELLCCSCQADPRHQGHRVQPVY	2.79
DKELLCCSCQADPRHQGHRVQPVM	3.29
DKELLCCSCQADPRHQGHRVQPVW	2.53

Variant	protein stability index
DKELLCCSCQADPRHQGHRVQPVQ	3.77
DKELLCCSCQADPRHQGHRVQPVN	3.04
DKELLCCSCQADPRHQGHRVQPVA	2.87
DKELLCCSCQADPRHQGHRVQPVT	3.31
DKELLCCSCQADPRHQGHRVQPVV	2.92
DKELLCCSCQADPRHQGHRVQPVC	3.18
DKELRCCSCQADPRHQGHRVQPVK	3.32
DKELCCCSCQADPRHQGHRVQPVK	3.88
DKELTCCSCQADPRHQGHRVQPVK	4.29
DKELICCSCQADPRHQGHRVQPVK	3.76
DKELNCCSCQADPRHQGHRVQPVK	2.66
DKELQCCSCQADPRHQGHRVQPVK	4.36
DKELECCSCQADPRHQGHRVQPVK	4.08
DKELFCCSCQADPRHQGHRVQPVK	3.55
DKELLCCSCQADPRHQLHRVQPVK	3.35
DKELLCCSCQADPRHQYHRVQPVK	3.37
DKELLCCSCQADPRHQPHRVQPVK	3.12
DKELLCCSCQADPRHQQHRVQPVK	3.59
DKELLCCSCQADPRHQNHRVQPVK	3.82
DKELLCCSCQADPRHQTHRVQPVK	3.78
DKELLCCSCQADPRHQAHRVQPVK	3.19
DKELLCCSCQADPRHQWHRVQPVK	2.67
DKELLCCSCQADPRHQCHRVQPVK	4.33
DKELLCCSCQADPRHQMHRVQPVK	2.88

Variant	protein stability index
DKELLCCHCQADPRHQGHRVQPVK	2.92
DKELLCCFCQADPRHQGHRVQPVK	2.24
DKELLCCLCQADPRHQGHRVQPVK	2.98
DKELLCCWCQADPRHQGHRVQPVK	2.5
DKELLCCQCQADPRHQGHRVQPVK	3.05
DKELLCCGCQADPRHQGHRVQPVK	4.14
DKELLCCKCQADPRHQGHRVQPVK	3.78
DKELLCCECQADPRHQGHRVQPVK	4.61
DKELLCCSCQADPRHQGHRNQPVK	4.13
DKELLCCSCQADPRHQGHRAQPVK	3.13
DKELLCCSCQADPRHQGHRDQPVK	4.14
DKELLCCSCQADPRHQGHRKQPVK	3.5
DKELLCCSCQADPRHQGHRSQPVK	3.71
DKELLCCSCQADPRHQGHRWQPVK	2.76
DKELLCCSCQADPRHQGHRQQPVK	4.11
DKELLCCSCQADPRVQGHRVQPVK	2.95
DKELLCCSCQADPRWQGHRVQPVK	3.33
DKELLCCSCQADPRSQGHRVQPVK	3.78
DKELLCCSCQADPRKQGHRVQPVK	3.44
DKELLCCSCQADPRCQGHRVQPVK	4.26
DKELLCCSCQADPRQQGHRVQPVK	3.02
DKELLCCSCQADPRMQGHRVQPVK	2.96
DKELLCCSCQADPRHQGHRVQPTK	3.4
DKELLCCSCQADPRHQGHRVQPCK	4

Variant	protein stability index
DKELLCCSCQADPRHQGHRVQPFK	3.07
DKELLCCSCQADPRHQGHRVQPMK	3.05
DKELLCCSCQADPRHQGHRVQPEK	3.92
DKELLCCSCQADPRHQGHRVQPDK	4.19
DKELLCCSCQADPRHQGHYVQPVK	3.16
DKELLCCSCQADPRHQGHDVQPVK	4.79
DKELLCCSCQADPRHQGHGVQPVK	3.63
DKELLCCSCQADPRHQGHVVQPVK	3.84
DKELLCCSCQADPRHQGHSVQPVK	3.73
DKELLCCSCQADPRHQGHAVQPVK	3.62
DKELLCCSCQADPRHQGHPVQPVK	3.73
DKELLCCSCQADPRHQGHHVQPVK	3.17
DKELLCCSCQADPRHQGHLVQPVK	3.52
DKELLCCSCQADPRHQGHCVQPVK	3.63
DKELLCCSCQADPAHQGHRVQPVK	4.06
DKELLCCSCQADPGHQGHRVQPVK	3.03
DKELLCCSCQADPPHQGHRVQPVK	4.18
DKELLCCSCQADPLHQGHRVQPVK	3.43
DKELLCCSCQADPVHQGHRVQPVK	2.95
DKETLCCSCQADPRHQGHRVQPVK	4.13
DKEVLCCSCQADPRHQGHRVQPVK	4.33
DKEGLCCSCQADPRHQGHRVQPVK	4.47
DKEMLCCSCQADPRHQGHRVQPVK	3.9
DKEKLCCSCQADPRHQGHRVQPVK	4.07

Variant	protein stability index
DLELLCCSCQADPRHQGHRVQPVK	3.18
DWELLCCSCQADPRHQGHRVQPVK	4.1
DDELLCCSCQADPRHQGHRVQPVK	3.46
DIELLCCSCQADPRHQGHRVQPVK	2.84
DMELLCCSCQADPRHQGHRVQPVK	3.65
DNELLCCSCQADPRHQGHRVQPVK	3.95
DHELLCCSCQADPRHQGHRVQPVK	3.51
DSELLCCSCQADPRHQGHRVQPVK	3.87
DPELLCCSCQADPRHQGHRVQPVK	3.19
DKELLCCSCQADPRHQGCRVQPVK	2.75
DKELLCCSCQADPRHQGGRVQPVK	4.1
DKELLCCSCQADPRHQGIRVQPVK	3.9
DKELLCCSCQADPRHQGRRVQPVK	3.6
DKELLCCSCQADPRHQGLRVQPVK	3.65
DKELLCCSCQADPRHQGPRVQPVK	2.6
DKELLCCSCQADPRHQGVRVQPVK	2.73
DKELLCCSCQADDRHQGHRVQPVK	3.44
DKELLCCSCQADNRHQGHRVQPVK	3.79
DKELLCCSCQADIRHQGHRVQPVK	3.69
DKELLCCSCQADRRHQGHRVQPVK	3.41
DKELLCCSCQADKRHQGHRVQPVK	3.15
DKELLCCSCQADCRHQGHRVQPVK	4.78
DKELLCCSCQADFRHQGHRVQPVK	2.31
DKELLCCSCQADARHQGHRVQPVK	3.04

Variant	protein stability index
DKELLCCSCQADGRHQGHRVQPVK	3
DKELLCCSCQADYRHQGHRVQPVK	2.79
DKELLCCSCQADERHQGHRVQPVK	3.44
DKELLECSCQADPRHQGHRVQPVK	4.3
DKELLYCSCQADPRHQGHRVQPVK	3
DKELLWCSCQADPRHQGHRVQPVK	2.29
DKELLSCSCQADPRHQGHRVQPVK	3.73
DKELLCCSCQADPRHKGHRVQPVK	3.96
DKELLCCSCQADPRHSGHRVQPVK	3.72
DKELLCCSCQADPRHPGHRVQPVK	3.66
DKELLCCSCQADPRHYGHRVQPVK	2.57
DKELLCCSCQADPRHFGHRVQPVK	2.32
DKELLCCSCQADPRHAGHRVQPVK	3.52
DKELLCCSCQADPRHGGHRVQPVK	3.82
DKELLCCSCQADPRHTGHRVQPVK	3.23
DKELLCCSCQADPRHVGHRVQPVK	2.88
DKELLCCSCQADPRHIGHRVQPVK	3.82
DKELLCCSCQADPRHDGHRVQPVK	3.98
DKELLCCSCQADPRHMGHRVQPVK	2.66
DKELLCCSCQADPRHCGHRVQPVK	4.54
